US20160289309A1

Experiments:
[1] = target: Tau in cerebrospinal fluid of cynomolgus monkeys (free Tau / extracellular Tau, eTau) (cynomolgus monkey (Macaca fascicularis)); test: cell-based or functional assay
[2] = target: Tau in cerebrospinal fluid of cynomolgus monkeys (free Tau / extracellular Tau, eTau) (cynomolgus monkey (Macaca fascicularis)); test: estimate from a PK/PD model fitted to free eTau (ELISA) in CSF of cynomolgus monkeys dosed with hu-IPN002; not a direct binding assay

- free eTau level in CSF between 8 and 168 hours, 20 mg/kg dose (% of baseline) [1]: 1.35 to 7.44
- free eTau level in CSF between 48 and 96 hours, 5 mg/kg dose (% of baseline) [1]: 17.3 to 21
- maximal reduction of CSF free eTau, single 5 mg/kg IV dose in cynomolgus monkeys [1]: 83%
- maximal reduction of CSF free eTau, single 20 mg/kg IV dose in cynomolgus monkeys [1]: 99%
- Kd [2]: 0.16 nM
B1: hu-IPN002 (antibody, IgG4, V domains shown)
VH: EVHLVESGGALVKPGGSLRLSCAASGFSFSKYGMSWVRQAPGKGLEWVATISSSGSRTYYPDSVKGRFTISRDNAKNTLYLQMNSLRAEDTAMYYCSISWDGAMDYWGQGTTVTVSS
VL: DVVMTQSPLSLPVTLGQPASISCKSSQSIVHSNGNTYLEWYLQKPGQSPQLLVYKVSNRFSGVPDRFSGSGSGTDFTLKISRVEAEDVGTYYCFQGSLVPWAFGGGTKVEIK
